# B1: Probe A (GINS1 promoter FOXP1 site A) (dsDNA)
# DNA 1: TCAAAAAGGCAATGTTTGCTGGGTG
# DNA 2: CACCCAGCAAACATTGCCTTTTTGA
# B2: Probe B (GINS1 promoter FOXP1 site B) (dsDNA)
# DNA 1: AGCTCAAGAGTTGTCGACCAGACTG
# DNA 2: CAGTCTGGTCGACAACTCTTGAGCT
# Target: T1, FOXP1 (recombinant, pET28a) (UniProt Q9H334 1-677)
# T1 sequence: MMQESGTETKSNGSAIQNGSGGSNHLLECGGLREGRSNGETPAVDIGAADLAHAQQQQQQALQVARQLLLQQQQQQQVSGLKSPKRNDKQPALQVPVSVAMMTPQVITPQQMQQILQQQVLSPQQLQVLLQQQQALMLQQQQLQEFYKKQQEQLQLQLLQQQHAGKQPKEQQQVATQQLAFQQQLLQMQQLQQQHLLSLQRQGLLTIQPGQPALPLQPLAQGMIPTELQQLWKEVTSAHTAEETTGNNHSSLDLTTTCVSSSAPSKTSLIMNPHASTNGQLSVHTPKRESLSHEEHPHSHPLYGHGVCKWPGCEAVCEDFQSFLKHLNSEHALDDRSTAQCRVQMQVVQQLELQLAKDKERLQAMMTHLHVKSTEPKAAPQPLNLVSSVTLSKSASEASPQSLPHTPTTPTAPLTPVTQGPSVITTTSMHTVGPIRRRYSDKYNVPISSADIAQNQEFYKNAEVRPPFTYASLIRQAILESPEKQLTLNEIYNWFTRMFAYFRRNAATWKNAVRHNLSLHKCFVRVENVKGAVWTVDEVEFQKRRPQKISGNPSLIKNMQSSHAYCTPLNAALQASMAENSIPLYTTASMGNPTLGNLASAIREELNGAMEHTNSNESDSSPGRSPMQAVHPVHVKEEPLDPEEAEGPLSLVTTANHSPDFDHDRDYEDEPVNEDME
# Experiment: EMSA; Nondenaturing PAGE EMSA, HRP-streptavidin detection; buffer, salt, pH and temperature not stated
# Details: protein: recombinant; tags: His tag (implied by pET28a and Ni-NTA); chain copies: 2; blunt
row,Binder,binding result
1,B1,binds
2,B2,binds
